# Values joined by “and” are separate entries in the source; they are usually repeats but may differ in a detail not shown here. Equal entries are not always repeated.
# Target: rhAngiopoietin-2 (R&D systems cat 623-AN/CF) (human) (UniProt O15123)
# Assay: cell-based or functional assay
# Chain of rhAngiopoietin-2 (R&D systems cat 623-AN/CF) (human) (O15123 19-496 limits assumed): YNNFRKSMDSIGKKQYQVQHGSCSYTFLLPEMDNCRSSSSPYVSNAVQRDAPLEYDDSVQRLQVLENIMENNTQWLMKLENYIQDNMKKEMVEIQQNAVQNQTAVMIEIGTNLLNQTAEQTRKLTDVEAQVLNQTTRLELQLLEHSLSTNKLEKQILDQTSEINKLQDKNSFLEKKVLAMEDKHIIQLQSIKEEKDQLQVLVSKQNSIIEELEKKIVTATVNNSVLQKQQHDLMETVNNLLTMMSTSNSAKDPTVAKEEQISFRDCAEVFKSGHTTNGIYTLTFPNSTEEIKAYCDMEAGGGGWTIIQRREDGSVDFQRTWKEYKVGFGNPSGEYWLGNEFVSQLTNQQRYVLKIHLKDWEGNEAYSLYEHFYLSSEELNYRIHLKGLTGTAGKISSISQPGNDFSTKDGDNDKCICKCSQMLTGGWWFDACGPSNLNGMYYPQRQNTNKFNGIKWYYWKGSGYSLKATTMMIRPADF
substance,measurement,value
Nesvacumab analog (Regeneron) (antibody),"Tie2 phosphorylation functional assay, EC50",4.4 nM and 2.2 nM

# — patent US20200407435A1
